# Results published in paper PMC6940849, “Structure-Based Redesign of a Self-Sufficient Flavin-Containing Monooxygenase towards Indigo Production” (International Journal of Molecular Sciences, 2019).
# B1: *mFMO (PTDH-*mFMO; mFMO M15L/S23A) (Methylophaga thalassica; M15L/S23A/W319A) (protein)
# chain: MATRIAILGAGPSGLAQLRAFQAAQEKGAEIPELVCFEKQADWGGQWNYTWRTGLDENGEPVHSSMYRYLWSNGPKECLEFADYTFDEHFGKPIASYPPREVLWDYIKGRVEKAGVRKYIRFNTAVRHVEFNEDSQTFTVTVQDHTTDTIYSEEFDYVVCCTGHFSTPYVPEFEGFEKFGGRILHAHDFRDALEFKDKTVLLVGSSYSAEDIGSQCYKYGAKKLISCYRTAPMGYKWPENWDERPNLVRVDTENAYFADGSSEKVDAIILCTGYIHHFPFLNDDLRLVTNNRLWPLNLYKGVVWEDNPKFFYIGMQDQAYSFNMFDAQAWYARDVIMGRLPLPSKEEMKADSMAWREKELTLVTAEEMYTYQGDYIQNLIDMTDYPSFDIPATNKTFLEWKHHKKENIMTFRDHSYRSLMTGTMAPKHHTPWIDALDDSLEAYLSDKSEIPVAKEA
# notes: N-terminal fusion to phosphite dehydrogenase (PTDH, cofactor regeneration; pCRE3-mFMO), Ni-Sepharose purified from E. coli NEB10beta
# B2: *mFMO (PTDH-*mFMO; mFMO M15L/S23A) (Methylophaga thalassica; C78I/M15L/S23A) (protein)
# chain: MATRIAILGAGPSGLAQLRAFQAAQEKGAEIPELVCFEKQADWGGQWNYTWRTGLDENGEPVHSSMYRYLWSNGPKEILEFADYTFDEHFGKPIASYPPREVLWDYIKGRVEKAGVRKYIRFNTAVRHVEFNEDSQTFTVTVQDHTTDTIYSEEFDYVVCCTGHFSTPYVPEFEGFEKFGGRILHAHDFRDALEFKDKTVLLVGSSYSAEDIGSQCYKYGAKKLISCYRTAPMGYKWPENWDERPNLVRVDTENAYFADGSSEKVDAIILCTGYIHHFPFLNDDLRLVTNNRLWPLNLYKGVVWEDNPKFFYIGMQDQWYSFNMFDAQAWYARDVIMGRLPLPSKEEMKADSMAWREKELTLVTAEEMYTYQGDYIQNLIDMTDYPSFDIPATNKTFLEWKHHKKENIMTFRDHSYRSLMTGTMAPKHHTPWIDALDDSLEAYLSDKSEIPVAKEA
# notes: as for B1
# B3: *mFMO (PTDH-*mFMO; mFMO M15L/S23A) (Methylophaga thalassica; M15L/S23A/W319F) (protein)
# chain: MATRIAILGAGPSGLAQLRAFQAAQEKGAEIPELVCFEKQADWGGQWNYTWRTGLDENGEPVHSSMYRYLWSNGPKECLEFADYTFDEHFGKPIASYPPREVLWDYIKGRVEKAGVRKYIRFNTAVRHVEFNEDSQTFTVTVQDHTTDTIYSEEFDYVVCCTGHFSTPYVPEFEGFEKFGGRILHAHDFRDALEFKDKTVLLVGSSYSAEDIGSQCYKYGAKKLISCYRTAPMGYKWPENWDERPNLVRVDTENAYFADGSSEKVDAIILCTGYIHHFPFLNDDLRLVTNNRLWPLNLYKGVVWEDNPKFFYIGMQDQFYSFNMFDAQAWYARDVIMGRLPLPSKEEMKADSMAWREKELTLVTAEEMYTYQGDYIQNLIDMTDYPSFDIPATNKTFLEWKHHKKENIMTFRDHSYRSLMTGTMAPKHHTPWIDALDDSLEAYLSDKSEIPVAKEA
# notes: as for B1
# B4: *mFMO (PTDH-*mFMO; mFMO M15L/S23A) (Methylophaga thalassica; C78I/M15L/S23A/W319A/Y207W) (protein)
# chain: MATRIAILGAGPSGLAQLRAFQAAQEKGAEIPELVCFEKQADWGGQWNYTWRTGLDENGEPVHSSMYRYLWSNGPKEILEFADYTFDEHFGKPIASYPPREVLWDYIKGRVEKAGVRKYIRFNTAVRHVEFNEDSQTFTVTVQDHTTDTIYSEEFDYVVCCTGHFSTPYVPEFEGFEKFGGRILHAHDFRDALEFKDKTVLLVGSSWSAEDIGSQCYKYGAKKLISCYRTAPMGYKWPENWDERPNLVRVDTENAYFADGSSEKVDAIILCTGYIHHFPFLNDDLRLVTNNRLWPLNLYKGVVWEDNPKFFYIGMQDQAYSFNMFDAQAWYARDVIMGRLPLPSKEEMKADSMAWREKELTLVTAEEMYTYQGDYIQNLIDMTDYPSFDIPATNKTFLEWKHHKKENIMTFRDHSYRSLMTGTMAPKHHTPWIDALDDSLEAYLSDKSEIPVAKEA
# notes: as for B1
# B5: *mFMO (PTDH-*mFMO; mFMO M15L/S23A) (Methylophaga thalassica; M15L/S23A/W319A/Y207W) (protein)
# chain: MATRIAILGAGPSGLAQLRAFQAAQEKGAEIPELVCFEKQADWGGQWNYTWRTGLDENGEPVHSSMYRYLWSNGPKECLEFADYTFDEHFGKPIASYPPREVLWDYIKGRVEKAGVRKYIRFNTAVRHVEFNEDSQTFTVTVQDHTTDTIYSEEFDYVVCCTGHFSTPYVPEFEGFEKFGGRILHAHDFRDALEFKDKTVLLVGSSWSAEDIGSQCYKYGAKKLISCYRTAPMGYKWPENWDERPNLVRVDTENAYFADGSSEKVDAIILCTGYIHHFPFLNDDLRLVTNNRLWPLNLYKGVVWEDNPKFFYIGMQDQAYSFNMFDAQAWYARDVIMGRLPLPSKEEMKADSMAWREKELTLVTAEEMYTYQGDYIQNLIDMTDYPSFDIPATNKTFLEWKHHKKENIMTFRDHSYRSLMTGTMAPKHHTPWIDALDDSLEAYLSDKSEIPVAKEA
# notes: as for B1
# B6: *mFMO (PTDH-*mFMO; mFMO M15L/S23A) (Methylophaga thalassica; M15L/S23A) (protein)
# chain: MATRIAILGAGPSGLAQLRAFQAAQEKGAEIPELVCFEKQADWGGQWNYTWRTGLDENGEPVHSSMYRYLWSNGPKECLEFADYTFDEHFGKPIASYPPREVLWDYIKGRVEKAGVRKYIRFNTAVRHVEFNEDSQTFTVTVQDHTTDTIYSEEFDYVVCCTGHFSTPYVPEFEGFEKFGGRILHAHDFRDALEFKDKTVLLVGSSYSAEDIGSQCYKYGAKKLISCYRTAPMGYKWPENWDERPNLVRVDTENAYFADGSSEKVDAIILCTGYIHHFPFLNDDLRLVTNNRLWPLNLYKGVVWEDNPKFFYIGMQDQWYSFNMFDAQAWYARDVIMGRLPLPSKEEMKADSMAWREKELTLVTAEEMYTYQGDYIQNLIDMTDYPSFDIPATNKTFLEWKHHKKENIMTFRDHSYRSLMTGTMAPKHHTPWIDALDDSLEAYLSDKSEIPVAKEA
# notes: as for B1
# B7: *mFMO (PTDH-*mFMO; mFMO M15L/S23A) (Methylophaga thalassica; M15L/S23A/Y207W) (protein)
# chain: MATRIAILGAGPSGLAQLRAFQAAQEKGAEIPELVCFEKQADWGGQWNYTWRTGLDENGEPVHSSMYRYLWSNGPKECLEFADYTFDEHFGKPIASYPPREVLWDYIKGRVEKAGVRKYIRFNTAVRHVEFNEDSQTFTVTVQDHTTDTIYSEEFDYVVCCTGHFSTPYVPEFEGFEKFGGRILHAHDFRDALEFKDKTVLLVGSSWSAEDIGSQCYKYGAKKLISCYRTAPMGYKWPENWDERPNLVRVDTENAYFADGSSEKVDAIILCTGYIHHFPFLNDDLRLVTNNRLWPLNLYKGVVWEDNPKFFYIGMQDQWYSFNMFDAQAWYARDVIMGRLPLPSKEEMKADSMAWREKELTLVTAEEMYTYQGDYIQNLIDMTDYPSFDIPATNKTFLEWKHHKKENIMTFRDHSYRSLMTGTMAPKHHTPWIDALDDSLEAYLSDKSEIPVAKEA
# notes: as for B1
# B8: *mFMO (PTDH-*mFMO; mFMO M15L/S23A) (Methylophaga thalassica; C78L/M15L/S23A) (protein)
# chain: MATRIAILGAGPSGLAQLRAFQAAQEKGAEIPELVCFEKQADWGGQWNYTWRTGLDENGEPVHSSMYRYLWSNGPKELLEFADYTFDEHFGKPIASYPPREVLWDYIKGRVEKAGVRKYIRFNTAVRHVEFNEDSQTFTVTVQDHTTDTIYSEEFDYVVCCTGHFSTPYVPEFEGFEKFGGRILHAHDFRDALEFKDKTVLLVGSSYSAEDIGSQCYKYGAKKLISCYRTAPMGYKWPENWDERPNLVRVDTENAYFADGSSEKVDAIILCTGYIHHFPFLNDDLRLVTNNRLWPLNLYKGVVWEDNPKFFYIGMQDQWYSFNMFDAQAWYARDVIMGRLPLPSKEEMKADSMAWREKELTLVTAEEMYTYQGDYIQNLIDMTDYPSFDIPATNKTFLEWKHHKKENIMTFRDHSYRSLMTGTMAPKHHTPWIDALDDSLEAYLSDKSEIPVAKEA
# notes: as for B1
# B9: *mFMO (PTDH-*mFMO; mFMO M15L/S23A) (Methylophaga thalassica; C78V/M15L/S23A) (protein)
# chain: MATRIAILGAGPSGLAQLRAFQAAQEKGAEIPELVCFEKQADWGGQWNYTWRTGLDENGEPVHSSMYRYLWSNGPKEVLEFADYTFDEHFGKPIASYPPREVLWDYIKGRVEKAGVRKYIRFNTAVRHVEFNEDSQTFTVTVQDHTTDTIYSEEFDYVVCCTGHFSTPYVPEFEGFEKFGGRILHAHDFRDALEFKDKTVLLVGSSYSAEDIGSQCYKYGAKKLISCYRTAPMGYKWPENWDERPNLVRVDTENAYFADGSSEKVDAIILCTGYIHHFPFLNDDLRLVTNNRLWPLNLYKGVVWEDNPKFFYIGMQDQWYSFNMFDAQAWYARDVIMGRLPLPSKEEMKADSMAWREKELTLVTAEEMYTYQGDYIQNLIDMTDYPSFDIPATNKTFLEWKHHKKENIMTFRDHSYRSLMTGTMAPKHHTPWIDALDDSLEAYLSDKSEIPVAKEA
# notes: as for B1
# B10: *mFMO (PTDH-*mFMO; mFMO M15L/S23A) (Methylophaga thalassica; C78A/M15L/S23A) (protein)
# chain: MATRIAILGAGPSGLAQLRAFQAAQEKGAEIPELVCFEKQADWGGQWNYTWRTGLDENGEPVHSSMYRYLWSNGPKEALEFADYTFDEHFGKPIASYPPREVLWDYIKGRVEKAGVRKYIRFNTAVRHVEFNEDSQTFTVTVQDHTTDTIYSEEFDYVVCCTGHFSTPYVPEFEGFEKFGGRILHAHDFRDALEFKDKTVLLVGSSYSAEDIGSQCYKYGAKKLISCYRTAPMGYKWPENWDERPNLVRVDTENAYFADGSSEKVDAIILCTGYIHHFPFLNDDLRLVTNNRLWPLNLYKGVVWEDNPKFFYIGMQDQWYSFNMFDAQAWYARDVIMGRLPLPSKEEMKADSMAWREKELTLVTAEEMYTYQGDYIQNLIDMTDYPSFDIPATNKTFLEWKHHKKENIMTFRDHSYRSLMTGTMAPKHHTPWIDALDDSLEAYLSDKSEIPVAKEA
# notes: as for B1
# Substrate: c1ccc2[nH]ccc2c1
# Test: purified protein
# Format: biochemical, Methylophaga thalassica
# Settings: NADPH, indole up to 1.6 mM
# [1] = listed as printed as WT, table title says *mFMO
Protein,Km [µM],kcat [s⁻¹],Km [1] [µM],kcat [1] [s⁻¹]
B1,900,0.42,–,–
B2,800,1.28,–,–
B3,400,0.64,–,–
B4,800,0.93,–,–
B5,800,0.8,–,–
B6,–,–,400,0.85
B7,100,0.31,–,–
B8,800,0.7,–,–
B9,700,1.04,–,–
B10,400,0.79,–,–
